We go through 24 sequences from the Immune Epitope Database (IEDB).

The target in one experiment is HLA-A*03:01. The experiment is described as follows: IEDB peptide-MHC binding, purified MHC/competitive/radioactivity; filed as Kd, often an IC50 or EC50 that approximates it; ≥ and ≤ were set here for values at or beyond the usual limits of such assays.
The target in a further experiment is HLA-A*30:01. The description is as above.
The target of a further experiment is HLA-A*02:01. Kind of experiment: IEDB peptide-MHC binding, purified MHC/competitive/fluorescence; ≥ and ≤ were set here for values at or beyond the usual limits of such assays.
For a further experiment, the target named is HLA-A*01:01. Kind of experiment: IEDB peptide-MHC binding, purified MHC/competitive/radioactivity; filed as Kd, often an IC50 or EC50 that approximates it; ≥ and ≤ were set here for values at or beyond the usual limits of such assays.
A further experiment concerns the target HLA-A*23:01. The experiment is described as above.
For another experiment, the target named is HLA-A*24:02. The experiment is described as above.
The target of a further experiment is HLA-A*26:01. The experiment is described as above.
Another experiment addresses HLA-A*29:02. The description is as above.
A further experiment concerns the target HLA-A*30:02. The experiment is described as above.
A further experiment has as its target HLA-A*31:01. The description is as above. The conditions noted are these: source organism: Mammarenavirus brazilense.
The target in a further experiment is HLA-A*33:01. The experiment is described as above. The conditions noted are these: source organism: Mammarenavirus brazilense.
The next experiment concerns the target HLA-A*68:01. Described as above. The conditions noted are these: source organism: Mammarenavirus brazilense.
Where [1] appears, read: source organism: Dengue virus 2 Jamaica/1409/1983.
Where [2] appears, read: source organism: Zaire ebolavirus.
Setting [3] is: source organism: Lassa virus Josiah.
Where [4] appears, read: source organism: SARS coronavirus Tor2.
Where [5] appears, read: source organism: Vaccinia virus WR.
Where [6] appears, read: source organism: Mammarenavirus brazilense.

By Kd is commonly meant the equilibrium constant for the complex coming apart. For RTTWSIHAK, the figures for the Kd with HLA-A*03:01 (setting [1]) and with HLA-A*30:01 (setting [1]) were 0.00699 µM and 0.0809 µM, respectively.
Broadly, the IC50 is the concentration that gives 50% inhibition. A lower IC50 goes with greater potency in that assay. Regarding LLNLSGVNN, the IC50 in the experiment with HLA-A*02:01 (setting [2]) is ≥ 167 µM.
In turn, ATWAENIQV yielded an IC50 with HLA-A*02:01 (source organism: West Nile virus NY-99) of 0.78 µM.
For the sequence EQGLIQYPT, the IC50 in the experiment with HLA-A*02:01 (setting [2]) stood at 60.5 µM.
For KVNPEIDTT, the IC50 with HLA-A*02:01 (setting [2]) was ≥ 120 µM.
As to ICLSGDGWPY, the dissociation constant (Kd) with HLA-A*01:01 (setting [3]) is 6.32 µM; in the experiment with HLA-A*23:01 (setting [3]), ≥ 70 µM; in the experiment with HLA-A*24:02 (setting [3]), ≥ 70.3 µM; with HLA-A*26:01 (setting [3]), ≥ 69.7 µM; with HLA-A*29:02 (setting [3]), 0.371 µM; with HLA-A*30:02 (setting [3]), 0.678 µM.
As for DEEGNLLDSY, the dissociation constant Kd with HLA-A*01:01 (setting [4]) is ≥ 92.6 µM; with HLA-A*23:01 (setting [4]), ≥ 58.1 µM; with HLA-A*24:02 (setting [4]), ≥ 70.3 µM; with HLA-A*26:01 (setting [4]), ≥ 71.6 µM; in the experiment with HLA-A*29:02 (setting [4]) it was 7.26 µM; with HLA-A*30:02 (setting [4]), 8.98 µM.
Take YYSLLMPIL: the Kd was ≥ 78.1 µM with HLA-A*01:01 (setting [4]); ≥ 43.9 µM with HLA-A*23:01 (setting [4]); ≥ 77.6 µM with HLA-A*24:02 (setting [4]); 13.7 µM in the experiment with HLA-A*26:01 (setting [4]); ≥ 75 µM with HLA-A*29:02 (setting [4]); ≥ 81.1 µM with HLA-A*30:02 (setting [4]).
For GLITNTIAG, the half-inhibitory concentration (IC50) with HLA-A*02:01 (setting [2]) came out at 4.1 µM.
As for KTMGSCIQM, the Kd with HLA-A*30:01 (setting [5]) was determined as 0.0523 µM.
HHANEYRQY: the equilibrium dissociation constant (Kd) in the experiment with HLA-A*01:01 (setting [4]) was ≥ 78.1 µM; with HLA-A*23:01 (setting [4]) it was ≥ 77.8 µM; in the experiment with HLA-A*24:02 (setting [4]) it was ≥ 33.4 µM; with HLA-A*26:01 (setting [4]) it was ≥ 102 µM; in the experiment with HLA-A*29:02 (setting [4]), 12.7 µM; in the experiment with HLA-A*30:02 (setting [4]), 6.96 µM.
In the case of HMVVKSALL, the equilibrium dissociation constant (Kd) with HLA-A*01:01 (setting [4]) came to 15.1 µM; with HLA-A*23:01 (setting [4]), 13.9 µM; with HLA-A*24:02 (setting [4]) it was 12.2 µM; with HLA-A*26:01 (setting [4]), 13.1 µM; in the experiment with HLA-A*29:02 (setting [4]), 0.511 µM; in the experiment with HLA-A*30:02 (setting [4]), 0.954 µM.
On to EHSWNADLY, for which the Kd with HLA-A*01:01 (setting [4]) was ≥ 69.4 µM; in the experiment with HLA-A*23:01 (setting [4]), ≥ 77.8 µM; with HLA-A*24:02 (setting [4]), ≥ 77.6 µM; with HLA-A*26:01 (setting [4]), 4.41 µM; with HLA-A*29:02 (setting [4]) it was 0.295 µM; with HLA-A*30:02 (setting [4]), 0.0451 µM.
Regarding LASLTPKAQ, the IC50 with HLA-A*02:01 (source organism: Variola virus) is ≥ 206 µM.
In the case of QDQDHTQEA, in the experiment with HLA-A*02:01 (setting [2]), the half-inhibitory concentration (IC50) is ≥ 321 µM.
VTDTNKFAHY: the Kd in the experiment with HLA-A*01:01 (source organism: Variola virus) was 0.0136 µM; in the experiment with HLA-A*23:01 (source organism: Variola virus), ≥ 50.2 µM; with HLA-A*24:02 (source organism: Variola virus) it was ≥ 70.3 µM; with HLA-A*26:01 (source organism: Variola virus), ≥ 69.7 µM; with HLA-A*29:02 (source organism: Variola virus) it was ≥ 25.5 µM; in the experiment with HLA-A*30:02 (source organism: Variola virus) it was 1.29 µM.
For the sequence LYIAENGEL, the dissociation constant Kd was 0.247 µM with HLA-A*23:01 (setting [6]), 1.68 µM in the experiment with HLA-A*24:02 (setting [6]) and ≥ 20.7 µM in the experiment with HLA-A*29:02 (setting [6]).
Turning to YIESKRGVY, the Kd is 0.145 µM with HLA-A*01:01 (setting [4]); ≥ 77.8 µM in the experiment with HLA-A*23:01 (setting [4]); ≥ 77.6 µM with HLA-A*24:02 (setting [4]); 0.735 µM with HLA-A*26:01 (setting [4]); 0.0203 µM with HLA-A*29:02 (setting [4]); 0.047 µM with HLA-A*30:02 (setting [4]).
Turning to AGKRSLRPQP, the Kd with HLA-A*30:01 (setting [1]) is 1.9 µM.
As for KSRVERVQV, the dissociation constant (Kd) with HLA-A*30:01 (setting [5]) came to 0.0112 µM.
In the experiment with HLA-A*02:01 (source organism: Sudan ebolavirus), GLRQLANET yielded a half-inhibitory concentration (IC50) of 34.2 µM.
Regarding TYHPNCINCL, the Kd is ≥ 70.4 µM in the experiment with HLA-A*01:01 (setting [4]); 1.15 µM in the experiment with HLA-A*23:01 (setting [4]); 0.663 µM with HLA-A*24:02 (setting [4]); ≥ 69.7 µM with HLA-A*26:01 (setting [4]); 5.58 µM with HLA-A*29:02 (setting [4]); ≥ 37.2 µM with HLA-A*30:02 (setting [4]).
In the case of LAAEWVLAY, the dissociation constant (Kd) is 0.0355 µM in the experiment with HLA-A*01:01 (setting [4]); ≥ 40.3 µM with HLA-A*23:01 (setting [4]); ≥ 41.1 µM with HLA-A*24:02 (setting [4]); 0.0752 µM with HLA-A*26:01 (setting [4]); 0.00047 µM with HLA-A*29:02 (setting [4]); 0.0163 µM in the experiment with HLA-A*30:02 (setting [4]).
For the sequence SSQRDTILK, the Kd with HLA-A*03:01 (setting [6]) is 0.27 µM; in the experiment with HLA-A*30:01 (setting [6]), 0.0465 µM; with HLA-A*31:01 it was 2.57 µM; with HLA-A*33:01 it was ≥ 24.2 µM; with HLA-A*68:01, 0.388 µM.
